PMC11609826 (Cancer Discovery, 2024)

How the values were obtained:
Test in all cases: ELISA
[1] = target: inducible T-cell costimulator (ICOS), recombinant (Homo sapiens (assumed), UniProt Q9Y6W8)
[2] = target: B- and T-lymphocyte attenuator (BTLA), recombinant (Homo sapiens (assumed), UniProt Q7Z6A9)
CD28, recombinant = CD28, recombinant (Homo sapiens (assumed), UniProt P10747)
PD-1, recombinant = PD-1, recombinant (Homo sapiens (assumed), UniProt Q15116)

Measured: binding result

Sequence of PD-1, recombinant (Q15116 25-288): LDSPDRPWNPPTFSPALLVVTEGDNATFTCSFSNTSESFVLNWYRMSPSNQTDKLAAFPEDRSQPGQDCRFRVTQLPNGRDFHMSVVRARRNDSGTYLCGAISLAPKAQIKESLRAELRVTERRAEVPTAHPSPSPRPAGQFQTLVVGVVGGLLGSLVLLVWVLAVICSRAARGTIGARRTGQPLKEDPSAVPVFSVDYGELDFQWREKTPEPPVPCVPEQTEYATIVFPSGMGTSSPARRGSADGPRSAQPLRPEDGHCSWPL
Sequence of inducible T-cell costimulator (ICOS), recombinant (Q9Y6W8 21-199): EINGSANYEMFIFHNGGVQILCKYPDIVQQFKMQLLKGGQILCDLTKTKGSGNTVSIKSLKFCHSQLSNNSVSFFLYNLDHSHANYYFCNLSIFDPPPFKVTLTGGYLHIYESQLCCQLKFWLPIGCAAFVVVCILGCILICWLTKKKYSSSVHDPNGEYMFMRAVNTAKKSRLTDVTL

B1: Botensilimab (antibody, V domains shown)
VH: EVQLVESGGGLVKPGGSLRLSCAASGFTFSSYSMNWVRQAPGKGLEWVSSISSSSSYIYYAESVKGRFTISRDNAKNSLYLQMNSLRAEDTAVYYCARVGLFGPFDIWGQGTLVTVSS
VL: EIVLTQSPGTLSLSPGERATLSCRASQSVSRYLGWYQQKPGQAPRLLIYGASTRATGIPDRFSGSGSGTDFTLTITRLEPEDFAVYYCQQYGSSPWTFGQGTKVEIK
no binding (tested: 1,000 ng/mL): [1] | [2] | CD28, recombinant | PD-1, recombinant
